Common to all, as to assay type: cell-based
Test [1] deals with 3T3-L1 fibroblasts forced to express betaKlotho. Nature of the test: GLUT1 mRNA level in 3T3-L1 fibroblasts forced to express betaKlotho. The conditions noted are these: betaKlotho expression vector; various concentrations; 6 hours. As to the method:
(§1) A betaKlotho expression vector or an empty vector used as a control, into which betaKlotho cDNA had not been inserted, were introduced into 3T3-L1 fibroblasts, and FGF21 was then added in various types of concentrations to a culture solution of the 3T3-L1 fibroblasts. The obtained mixture was cultured for 6 hours. Thereafter, RNA was extracted, and the mRNA level of GLUT1 was then measured.

For test [2], the target named is T1, FGFR1c-expressing BaF3 cells (Mus musculus, UniProt P16092).
T1 construct: the entire-length cDNA of mouse FGFR1c had been cloned; expressed in transfected cells; host or cells: BaF3 (mouse pro-B) cells
T1 sequence (P16092 22-822): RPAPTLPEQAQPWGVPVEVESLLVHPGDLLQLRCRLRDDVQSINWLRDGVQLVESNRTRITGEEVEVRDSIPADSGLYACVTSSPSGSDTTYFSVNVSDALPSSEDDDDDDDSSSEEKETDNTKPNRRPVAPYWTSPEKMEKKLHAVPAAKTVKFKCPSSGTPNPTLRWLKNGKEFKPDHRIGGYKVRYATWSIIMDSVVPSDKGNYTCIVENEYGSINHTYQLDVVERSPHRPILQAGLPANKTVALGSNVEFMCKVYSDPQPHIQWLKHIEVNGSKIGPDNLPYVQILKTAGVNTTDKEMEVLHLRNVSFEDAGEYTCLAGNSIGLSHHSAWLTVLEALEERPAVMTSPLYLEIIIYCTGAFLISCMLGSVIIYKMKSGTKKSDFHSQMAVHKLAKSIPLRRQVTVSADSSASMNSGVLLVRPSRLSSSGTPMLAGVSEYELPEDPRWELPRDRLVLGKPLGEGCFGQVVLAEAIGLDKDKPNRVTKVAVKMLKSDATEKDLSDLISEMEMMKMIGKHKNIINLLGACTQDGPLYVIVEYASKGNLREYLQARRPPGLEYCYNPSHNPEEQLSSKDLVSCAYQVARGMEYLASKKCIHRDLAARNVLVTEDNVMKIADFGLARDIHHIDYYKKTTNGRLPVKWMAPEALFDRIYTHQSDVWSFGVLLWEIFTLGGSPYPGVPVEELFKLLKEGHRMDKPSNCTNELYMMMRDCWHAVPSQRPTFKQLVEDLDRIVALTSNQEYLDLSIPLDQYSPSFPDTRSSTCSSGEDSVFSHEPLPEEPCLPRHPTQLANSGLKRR
Nature of the test: DNA synthesis (thymidine incorporation) in BaF3 cells expressing only FGFR1c. The settings on record: BaF3 cells expressing FGFR1c but not betaKlotho. As for the experimental part:
A commonly used measurement method is a cell growth stimulating activity measurement method described in Ornitz, D. M., Xu, J., Colvin, J. S., McEwen, D. G., MacArthur, C. A., Coulier, F., Gao, G. and Goldfarb, M. (1996) Receptor specificity of the fibroblast growth factor family. J Biol Chem, 271, 15292-15297. The summary thereof is as follows. FGF used as a measurement target is added to a culture solution containing a cultured cell having an FGF receptor on the surface thereof, and the obtained mixture is cultured for a certain period of time. Thereafter, a labeled thymidine is added to the culture solution, followed by further culture for a certain period of time. By measuring the amount of the labeled thymidine incorporated into polymeric DNA during the culture, the degree of FGF to activate DNA synthesis is evaluated. (In the present invention as well, this method was adopted when the activity of FGF21 was measured in Examples 4, 5, 6, 8, 9, and 10.) […]
Immediately after inoculation, BaF3 cells that had expressed each clone and only FGFR1c were stimulated by addition of FGF21 (open bar) or PBS (filled bar) used as a control in the presence of heparin, and they were then cultured for 42 hours. […] Thereafter, the amount of thymidine incorporated into the cells was measured, so as to evaluate DNA synthesis. […]
On the technique in general: Dividing cells build labelled thymidine or BrdU into new DNA.

Test [3] addresses T2, BaF3 cells that had co-expressed FGFR1c and Klotho (Mus musculus, UniProt O35082+P16092).
T2 construct: the entire-length cDNA of mouse FGFR1c had been cloned; expressed in transfected cells; host or cells: BaF3 (mouse pro-B) cells
Briefly: DNA synthesis in BaF3 cells co-expressing FGFR1c and Klotho. The conditions noted are these: presence or absence of heparin. As for the experimental part:
Specifically, BaF3 cell that had co-expressed FGFR1c and betaKlotho and BaF3 cells that had co-expressed FGFR1c and Klotho were prepared by the same transformation method and under the same culture conditions as those applied in Example 4. Thereafter, FGF21 and FGF23 were added to both types of transformed cells in the presence or absence of heparin, and the amount of DNA synthesized was then measured.

The test system of test [4] is control 3T3-L1 fibroblasts. Nature of the test: GLUT1 mRNA level in control 3T3-L1 fibroblasts (empty vector). The conditions noted are these: various concentrations, 6 hours. As to the method: as §1
In test [5] the test system is adipocytes differentiated from 3T3-L1 cells. Nature of the test: GLUT1 mRNA expression in 3T3-L1 cells differentiated into adipocytes. The settings on record: various concentrations, 6 hours. As for the experimental part: It has been reported that FGF21 allows adipocytes to increasingly express glucose transporter 1 (GLUT1). In the present example, as cultured adipocytes, there were used 3T3-L1 cells that are fibroblasts having the ability to differentiate into adipocytes by controlling culture conditions. The cells were cultured in a culture solution of a Dulbecco's modified Eagle medium (DMEM) containing 10% fetal bovine serum (FBS), so as to prepare cells maintaining an undifferentiated property as fibroblasts. The prepared cells were cultured in a test system, and they were allowed to grow to a confluent state. The cells were then left for 2 days. Thereafter, the culture solution was exchanged with DMEM as a culture solution used for differentiation induction, which comprised 10% FBS, 0.25 μM dexamethasone, 0.5 mM methyl isobutyl xanthine, and 5 μg/ml insulin. The cells were cultured for 2 days. […] The term “cells having the properties of adipocytes” is used herein to mean cells, which conduct intracellular metabolism specific to adipocytes and have cytoplasm in which large quantities of fat droplets are accumulated.
FGF21 were added in various types of concentrations to such different types of culture solutions, and the cells were further culture for 6 hours. Thereafter, RNA was extracted, and the copy number of GLUT1 was counted.

T2 sequence (P16092 22-822): as above
T2 sequence (O35082 35-1014): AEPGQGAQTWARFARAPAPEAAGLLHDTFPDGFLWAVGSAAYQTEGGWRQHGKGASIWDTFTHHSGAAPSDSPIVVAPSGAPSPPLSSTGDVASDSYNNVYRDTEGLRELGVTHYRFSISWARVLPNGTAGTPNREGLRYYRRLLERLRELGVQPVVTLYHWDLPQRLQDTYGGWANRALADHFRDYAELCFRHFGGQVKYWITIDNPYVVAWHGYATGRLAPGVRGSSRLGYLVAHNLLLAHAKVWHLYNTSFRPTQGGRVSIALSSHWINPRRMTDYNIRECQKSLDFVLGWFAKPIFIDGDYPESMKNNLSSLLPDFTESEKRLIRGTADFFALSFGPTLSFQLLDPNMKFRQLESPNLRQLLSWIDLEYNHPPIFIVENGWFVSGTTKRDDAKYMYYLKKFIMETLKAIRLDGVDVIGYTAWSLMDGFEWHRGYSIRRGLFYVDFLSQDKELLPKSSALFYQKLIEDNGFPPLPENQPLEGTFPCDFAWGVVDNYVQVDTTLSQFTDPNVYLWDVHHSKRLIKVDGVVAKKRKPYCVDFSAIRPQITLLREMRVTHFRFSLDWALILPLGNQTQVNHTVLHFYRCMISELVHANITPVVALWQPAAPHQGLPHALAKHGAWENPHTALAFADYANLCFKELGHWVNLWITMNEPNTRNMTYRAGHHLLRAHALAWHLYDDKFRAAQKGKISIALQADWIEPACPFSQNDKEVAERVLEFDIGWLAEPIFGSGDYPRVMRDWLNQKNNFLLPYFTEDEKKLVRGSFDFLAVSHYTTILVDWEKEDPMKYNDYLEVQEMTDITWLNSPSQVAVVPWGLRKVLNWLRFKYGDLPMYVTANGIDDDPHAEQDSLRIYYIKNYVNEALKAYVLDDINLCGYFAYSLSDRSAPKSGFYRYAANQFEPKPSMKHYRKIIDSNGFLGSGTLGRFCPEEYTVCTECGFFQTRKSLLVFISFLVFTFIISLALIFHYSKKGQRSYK

B1: FGF21: fibroblast growth factor 21; mouse-derived protein used in Examples 1-7 and 10-13 (protein)
chain: AYPIPDSSPLLQFGGQVRQRYLYTDDDQDTEAHLEIREDGTVVGAAHRSPESLLELKALKPGVIQILGVKASRFLCQQPDGALYGSPHFDPEACSFRELLLEDGYNVYQSEAHGLPLRLPQKDSPNQDATSWGPVRFLPMPGLLHEPQDQAGFLPPEPPDVGSSDPLSMVEPLQGRSPSYAS
Consider B1, for which the results for the “mRNA level of GLUT1” value in test [1] and in test [4] were “increased depending on the amount of FGF21” and “not observed”, respectively. The “DNA synthesis (thymidine incorporated into the cells)” value in test [2] is “did not react with FGF21”. In test [3], the “amount of DNA synthesized” value is recorded as “did not react with FGFR1c”. For the same molecule, the “expression level of GLUT1 mRNA” value in test [5] is listed as “increased”.

(Values after patent US8697369B2, “Method for screening a test substance for activating a receptor associated with FGF 21 activity” (National Institute of Advanced Industrial Science and …, priority 2007, dated 2014).)
